From patent publication US20100204147A1, “Methods For Delivering Thymosin Beta 4, Analogues, Isoforms and Other Derivatives” (REGENERX BIOPHARMACEUTICALS, INC., priority 2003, published 2010)

Legend:
fibrin = molecular target: T1, fibrin (Homo sapiens, UniProt P02671); assay: Solid-phase binding assay (ELISA), immobilized fibrin
T1 construct: purchased Enzyme Research Laboratories (South Bend, Ind.); host or cells: fibrin generated in the well or tube from the purchased fibrinogen with bovine thrombin
T1 sequence (P02671 36-629 limits assumed): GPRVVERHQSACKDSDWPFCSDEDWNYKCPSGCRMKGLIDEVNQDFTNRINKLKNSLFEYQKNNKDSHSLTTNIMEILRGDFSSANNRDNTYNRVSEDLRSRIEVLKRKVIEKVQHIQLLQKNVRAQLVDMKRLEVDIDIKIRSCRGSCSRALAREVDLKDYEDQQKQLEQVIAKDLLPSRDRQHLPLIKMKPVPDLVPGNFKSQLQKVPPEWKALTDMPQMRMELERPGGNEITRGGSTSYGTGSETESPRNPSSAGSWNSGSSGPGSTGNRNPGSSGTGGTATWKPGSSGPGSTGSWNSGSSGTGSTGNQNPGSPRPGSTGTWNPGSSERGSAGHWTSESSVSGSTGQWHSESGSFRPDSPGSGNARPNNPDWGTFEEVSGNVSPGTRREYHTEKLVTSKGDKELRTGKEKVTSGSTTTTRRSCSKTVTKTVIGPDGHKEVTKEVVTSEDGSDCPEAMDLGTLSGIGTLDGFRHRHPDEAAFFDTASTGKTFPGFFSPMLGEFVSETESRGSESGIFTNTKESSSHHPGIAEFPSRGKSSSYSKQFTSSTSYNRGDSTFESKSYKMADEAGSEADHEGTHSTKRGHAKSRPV
T1 sequence (P02675 45-491 partner limits assumed): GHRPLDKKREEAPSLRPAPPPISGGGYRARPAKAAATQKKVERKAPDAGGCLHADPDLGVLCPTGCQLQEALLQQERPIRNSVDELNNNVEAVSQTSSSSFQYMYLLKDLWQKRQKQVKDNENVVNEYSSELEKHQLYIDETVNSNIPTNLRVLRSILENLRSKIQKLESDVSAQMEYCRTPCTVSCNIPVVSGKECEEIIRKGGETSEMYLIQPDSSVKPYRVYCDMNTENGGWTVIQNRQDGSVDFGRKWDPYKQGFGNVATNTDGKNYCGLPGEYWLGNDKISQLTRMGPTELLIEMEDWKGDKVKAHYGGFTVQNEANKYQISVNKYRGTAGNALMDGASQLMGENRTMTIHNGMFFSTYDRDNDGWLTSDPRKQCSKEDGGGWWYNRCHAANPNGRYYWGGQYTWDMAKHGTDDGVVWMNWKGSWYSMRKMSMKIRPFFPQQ
T1 sequence (P02679 27-437 isoform P02679-2 partner limits assumed): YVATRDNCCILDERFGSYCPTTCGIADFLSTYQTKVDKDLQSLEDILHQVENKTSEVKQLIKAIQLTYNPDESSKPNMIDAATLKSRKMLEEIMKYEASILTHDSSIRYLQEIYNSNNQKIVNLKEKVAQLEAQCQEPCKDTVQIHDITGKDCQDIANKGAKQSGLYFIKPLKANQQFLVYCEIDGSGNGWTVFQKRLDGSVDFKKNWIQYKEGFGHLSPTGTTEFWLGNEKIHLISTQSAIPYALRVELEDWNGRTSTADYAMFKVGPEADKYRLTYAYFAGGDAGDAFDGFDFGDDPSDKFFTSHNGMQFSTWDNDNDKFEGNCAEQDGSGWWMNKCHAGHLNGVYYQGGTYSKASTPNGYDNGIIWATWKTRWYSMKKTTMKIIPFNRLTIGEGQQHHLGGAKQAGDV
Description: (§1) The interaction between thymosin β4 and fibrin(ogen) and its fragments in the presence or absence of FXIIIa was studies by ELISA using plastic microliter plates. Wells of microliter plates were coated overnight at […] with fibrinogen and fibrin at 10 μg/mL or with the recombinant fragments of 20 μg/ml, all in 0.1 M NaHCO3 buffer, pH 8.3. Fibrin was made by addition to the wells of a mixture containing 10 μg/mL fibrinogen 1 NIH u/ml thrombin and 400 u/ml aprotinin, followed by overnight incubation at +4° C. The wells were then blocked by incubation with Super Blocker (Pierce) at 37° C. for 1 h. Following washing with TBS containing 0.05% Tween-20 (TBS-Tween), the indicated concentrations of thymosin β4, FXIII, FXIIIa(Thr) and FXIIIa(Ca) were added to the wells and incubated for 2-2.5 h at 37° C. Bound (incorporated) thymosin β4 was detected by the reaction with rabbit anti-thymosin β4 serum and peroxidase-conjugated anti-rabbit IgG. A TMB Microwell Peroxidase Substrase was added to the wells, and the incorporated thymosin β4 was measured spectrophotometrically at 450 nm.

[1] = molecular target: T2, αC-domain (residues Aα221-610) (Homo sapiens, UniProt P02671); assay: ELISA and kinetic analysis of incorporation into immobilized αC-domain; format: biochemical
T2 construct: human fibrinogen αC-domain (residues Aα221-610); made in house; host or cells: E. coli, pET20b expression vector
T2 sequence (P02671 240-629): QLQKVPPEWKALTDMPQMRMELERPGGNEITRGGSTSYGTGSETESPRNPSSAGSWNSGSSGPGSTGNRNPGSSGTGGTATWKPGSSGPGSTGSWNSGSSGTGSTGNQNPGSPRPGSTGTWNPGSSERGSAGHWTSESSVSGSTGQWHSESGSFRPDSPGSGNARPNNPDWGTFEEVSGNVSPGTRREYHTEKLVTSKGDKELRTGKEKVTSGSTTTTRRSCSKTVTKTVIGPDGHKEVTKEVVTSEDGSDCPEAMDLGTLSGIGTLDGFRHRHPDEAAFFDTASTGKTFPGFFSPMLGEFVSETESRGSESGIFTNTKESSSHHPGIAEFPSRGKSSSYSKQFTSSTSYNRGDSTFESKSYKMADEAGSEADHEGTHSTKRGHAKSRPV
Description: as §1
To analyze kinetics of the incorporation of thymosin β4 into different fibrin(ogen) fragments, they were immobilized onto the wells of microliter plates (as described above, except that the concentration of all fragments was 20 μg/mL) and incubated with several concentrations of thymosin β4 in the presence of 10 μg/L thrombin-activated factor XIIIa. The incubation mixtures were inhibited every 15 min during 1 hour of incubation by the addition of iodacetamide to final concentration 10 mM. Incorporated thymosin β4 at each time point was detected with rabbit anti-thymosin β4 serum as described above. The initial rates of the reaction of incorporation (V) at different concentrations of thymosin β4 were determined from the slopes of the reaction time course plots and expressed as tangent α=A450/t (min), where A450 represents absorbance at 450 nm in optical units (o.u) which is proportional to the amount of incorporated thymosin β4. […]

- non-covalent interaction with immobilized fibrin (ELISA signal) (fibrin; absence of factor XIII or non-activated factor XIII): no significant non-covalent interaction
- factor XIIIa-mediated incorporation into immobilized fibrin (ELISA signal) (fibrin; factor XIII activated by CaCl2): higher than that into fibrinogen
- non-covalent interaction with αC-domain (ELISA) ([1]; non-activated factor XIII or without it): no significant non-covalent interaction
- incorporation into immobilized αC-domain (ELISA) ([1]; presence of factor XIIIa): incorporated effectively
- Km ([1]; thrombin-activated factor XIIIa, Lineweaver-Burk plot, read-out: apparent Michaelis constant (Km) for incorporation into the αC-domain): 17.6 ± 2.5 µM
Substance: thymosin β4
